Biological target: F-actin labeled at Cys-374 with fluorescein-5-maleimide (FMAL-actin) (rabbit) (UniProt P68135)
Test: FRET or BRET

| Substance | Kd | donor lifetime τDA of FMAL-actin with 20 μM TMR-C0-C2^Cys225 (τD = 4.2 ns) |
| --- | --- | --- |
| TMR-C0-C2^Cys225 of human cMyBP-C phosphorylated by PKA (domain or fragment) | 3 µM |  |
| single-cysteine C0-C2^Cys225 of human cMyBP-C labeled with tetramethylrhodamine (TMR-C0-C2^Cys225) (domain or fragment) | 1 µM | 2 ns |

Source: doi:10.1101/2021.03.24.436879
